{
  "source": "patent US20090137003A1",
  "about": "(SYMPHOGEN A S, published 2009)",
  "binders": {"B1": {"name": "Palivizumab (Synagis) (antibody, V domains shown)", "VH": "QVTLRESGPALVKPTQTLTLTCTFSGFSLSTSGMSVGWIRQPPGKALEWLADIWWDDKKDYNPSLKSRLTISKDTSKNQVVLKVTNMDPADTATYYCARSMITNWYFDVWGAGTTVTVSS", "VL": "DIQMTQSPSTLSASVGDRVTITCKCQLSVGYMHWYQQKPGKAPKLLIYDTSKLASGVPSRFSGSGSGTEFTLTISSLQPDDFATYYCFQGSGYPFTFGGGTKLEIK"}},
  "assay_in_all_cases": "cell-based or functional assay",
  "key": {"[1]": {"target": "T1, RSV protein F of strain A2 (RSV A2 (ATCC number VR-1540), UniProt P03420 26-574)", "T1 sequence (P03420 26-574)": "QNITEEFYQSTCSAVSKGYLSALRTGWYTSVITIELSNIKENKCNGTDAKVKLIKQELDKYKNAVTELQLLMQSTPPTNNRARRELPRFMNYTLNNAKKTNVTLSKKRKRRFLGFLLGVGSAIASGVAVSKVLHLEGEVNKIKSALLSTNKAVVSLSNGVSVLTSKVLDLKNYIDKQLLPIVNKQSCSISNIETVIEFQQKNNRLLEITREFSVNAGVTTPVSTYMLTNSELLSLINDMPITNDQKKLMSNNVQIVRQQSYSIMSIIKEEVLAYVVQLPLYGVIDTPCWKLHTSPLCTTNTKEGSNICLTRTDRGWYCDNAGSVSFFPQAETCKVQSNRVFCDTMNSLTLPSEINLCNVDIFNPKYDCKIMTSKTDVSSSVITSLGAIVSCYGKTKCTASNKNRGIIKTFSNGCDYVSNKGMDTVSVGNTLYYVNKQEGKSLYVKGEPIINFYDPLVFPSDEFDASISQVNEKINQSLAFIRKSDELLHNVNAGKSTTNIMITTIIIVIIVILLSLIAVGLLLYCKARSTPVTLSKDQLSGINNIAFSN"}, "[2]": {"target": "T2, RSV protein F of strain B Wash/18537 (RSV B Wash/18537 (ATCC number VR-1580), UniProt P13843 26-574)", "T2 sequence (P13843 26-574)": "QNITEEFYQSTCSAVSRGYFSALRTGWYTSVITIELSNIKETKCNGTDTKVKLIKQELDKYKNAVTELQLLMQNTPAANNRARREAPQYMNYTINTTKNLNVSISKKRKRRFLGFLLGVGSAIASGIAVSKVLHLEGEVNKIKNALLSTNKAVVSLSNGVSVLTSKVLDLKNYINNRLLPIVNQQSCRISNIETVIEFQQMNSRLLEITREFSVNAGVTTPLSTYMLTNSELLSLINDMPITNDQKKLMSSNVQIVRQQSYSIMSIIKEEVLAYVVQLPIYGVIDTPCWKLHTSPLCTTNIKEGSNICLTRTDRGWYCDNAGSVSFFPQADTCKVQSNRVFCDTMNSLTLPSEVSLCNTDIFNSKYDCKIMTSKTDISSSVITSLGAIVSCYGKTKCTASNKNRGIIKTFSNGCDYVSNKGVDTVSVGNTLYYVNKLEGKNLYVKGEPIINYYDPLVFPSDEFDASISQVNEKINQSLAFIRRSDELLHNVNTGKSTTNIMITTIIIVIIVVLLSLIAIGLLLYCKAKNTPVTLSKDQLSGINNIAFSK"}, "[3]": {"target": "T3, RSV protein F of strain Long (RSV Long (ATCC number VR-26), UniProt P12568 26-574)", "T3 sequence (P12568 26-574)": "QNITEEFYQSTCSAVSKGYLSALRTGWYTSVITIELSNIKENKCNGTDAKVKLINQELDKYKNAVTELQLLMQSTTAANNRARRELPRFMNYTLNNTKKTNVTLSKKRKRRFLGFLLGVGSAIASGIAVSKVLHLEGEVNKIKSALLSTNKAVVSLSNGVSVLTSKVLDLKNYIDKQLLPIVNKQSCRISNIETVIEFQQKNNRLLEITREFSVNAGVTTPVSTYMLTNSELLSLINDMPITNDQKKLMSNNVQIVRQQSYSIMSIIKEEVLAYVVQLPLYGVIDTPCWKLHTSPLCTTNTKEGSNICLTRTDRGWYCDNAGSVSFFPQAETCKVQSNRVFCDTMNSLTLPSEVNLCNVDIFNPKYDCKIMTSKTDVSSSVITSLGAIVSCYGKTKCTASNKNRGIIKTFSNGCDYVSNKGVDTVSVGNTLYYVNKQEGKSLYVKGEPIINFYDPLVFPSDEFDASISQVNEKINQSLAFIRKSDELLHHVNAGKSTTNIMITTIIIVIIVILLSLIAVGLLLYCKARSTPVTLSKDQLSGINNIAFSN"}, "[4]": {"target": "T1, RSV protein F of strain A2", "remark": "listed apart in the source"}, "[5]": {"target": "T2, RSV protein F of strain B Wash/18537", "remark": "listed apart in the source"}, "[6]": {"target": "T3, RSV protein F of strain Long", "remark": "listed apart in the source"}},
  "data": [
    {"binder": "B1", "values": [
      {"measurement": "EC50 value (µg/ml), PRNT (plaque reduction neutralization) against RSV strain A2", "setting": "[1]", "value": 0.15, "unit": "µg/mL"},
      {"measurement": "EC50 value (µg/ml), PRNT (plaque reduction neutralization) against RSV strain 18537", "setting": "[2]", "value": 0.2, "unit": "µg/mL"},
      {"measurement": "EC50 value (µg/ml), PRNT (plaque reduction neutralization) against RSV strain Long", "setting": "[3]", "value": 0.14, "unit": "µg/mL"},
      {"measurement": "PRNT EC50 with complement, RSV A2", "setting": "[4]", "value": 0.15, "unit": "µg/mL"},
      {"measurement": "PRNT EC50 with complement, RSV 18537", "setting": "[5]", "value": 0.2, "unit": "µg/mL"},
      {"measurement": "PRNT EC50 with complement, RSV Long", "setting": "[6]", "value": 0.14, "unit": "µg/mL"}
    ]}
  ]
}
